These results are taken from patent publication US20170114100A1 (ALBERT EINSTEIN COLLEGE OF MEDICINE, published 2017).

This data set concerns the molecule itself. The data set can be described thus: SEC dimerization assay (FIG. 4A).

B1: BAX 4MA (C62S, C126S, V121C, I136C), internally cross-linked mutant (other)
chain: MDGSGEQPRGGGPTSSEQIMKTGALLLQGFIQDRAGRMGGEAPELALDPVPQDASTKKLSESLKRIGDELDSNMELQRMIAAVDTDSPREVFFRVAADMFSDGNFNWGRVVALFYFASKLCLKALSTKVPELIRTCMGWTLDFLRERLLGWIQDQGGWDGLLSYFGTPTWQTVTIFVAGVLTASLTIWKKMG
modifications: internal cross-link between the introduced cysteines (V121C, I136C), reduced by DTT
notes: also called BAX 4MA dimer; 4MA monomer
With B1, the binding result was “binds”.
